Laboratory results from the supplement of paper PMC10724198.
± gives the standard deviation of the averaged measurements.

System: Saccharomyces cerevisiae
Assay: protein stability index of tFT-peptide fusion (C-terminal peptide) (PSI (0-1 scale)); higher = more stable (slower turnover)
Details: genetic background: wild type; temperature: 30 C
Description: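 Multiplexed protein stability (MPS) profiling in S. cerevisiae. Random 12-aa peptides (tFT-X12 library) are fused to the C-terminus of a sfGFP-mCherry tandem fluorescent timer, after mCherry and a GGGS linker. Cells are FACS-sorted into 8 mCherry/sfGFP bins and deep-sequenced. The protein stability index (PSI) is the read-weighted bin average, scaled from 0 (unstable) to 1 (stable). Only peptides with >10 reads are reported; cells were grown at 30 °C in SC-His with glucose.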
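Further: PSI is a weighted mean of sequencing reads over stability bins, variants kept only with over 10 reads, mCherry proximal and sfGFP distal, peptide attached via GGGS linker.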

| Sequence | protein stability index |
| --- | --- |
| HSVEPARSSSAM | 0.669 ± 0.07 |
| HTANYILPLIHI | 0.635 ± 0.044 |
| HTRSPVPPPPPS | 0.657 ± 0.0019 |
| HVDGGAVLLEGQ | 0.67888 ± 0.00049 |
| HVGGISSPLTPC | 0.656 ± 0.025 |
| HVGYLIMVYRGR | 0.646 ± 0.072 |
| HVSPSPYPPGYP | 0.697 ± 0.026 |
| HWGRGGRSGGDR | 0.697 ± 0.025 |
| HWHLIKIKLKEK | 0.742 ± 0.043 |
| HWYLRCAVCEGV | 0.651 ± 0.022 |
| HYVQARMRSAVP | 0.636 ± 0.091 |
| IAAVQSGGRVAG | 0.462 ± 0.057 |
| IAGMFSLKFGVP | 0.714 ± 0.082 |
| IAKLLHSPSTFT | 0.688 ± 0.014 |
| IAPLMSSILYPI | 0.685 ± 0.025 |
| ICHLTIFHLRRL | 0.6151 ± 0.0037 |
| ICIKKNTLTKTE | 0.669 ± 0.012 |
| ICLGCFEEYEGV | 0.812 ± 0.077 |
| ICSQLVVAWEGV | 0.714 |
| IDFNWESSTMNI | 0.7438 ± 0.0058 |
| IDGGSAWSAVSL | 0.687 ± 0.018 |
| IEATHKIDRCKD | 0.676 ± 0.0086 |
| IEPTFDGSLCLG | 0.7 ± 0.0094 |
| IESASRSTTGGI | 0.77 ± 0.14 |
| IFPFKDDVPFVS | 0.684 ± 0.0015 |

| Sequence | protein stability index |
| --- | --- |
| IFPNSGKIEVLA | 0.574 ± 0.016 |
| IFPSIPTLLPPS | 0.701 ± 0.041 |
| IFRASTGASYRT | 0.5738 ± 0.0034 |
| IFWGFSFRGGGG | 0.667 ± 0.012 |
| IGCFVEFLYGVW | 0.593 ± 0.023 |
| IGFHGALPGICL | 0.663 ± 0.054 |
| IGLRKGVGIMRP | 0.637 ± 0.12 |
| IGRGAPPGWVGA | 0.704 ± 0.02 |
| IGSLCTPVCQCS | 0.607 ± 0.019 |
| IHLCPPPALRES | 0.703 ± 0.0083 |
| IHRTSVALFFFP | 0.713 ± 0.034 |
| IIAESPWFLIIR | 0.444 ± 0.094 |
| IIEESTRPSPLG | 0.697 ± 0.059 |
| IIFQWVVPTILQ | 0.546 ± 0.019 |
| IIIVGSWSGGGG | 0.663 ± 0.025 |
| IILRSSLLPLLY | 0.548 ± 0.013 |
| IINKKANQKKKE | 0.68 ± 0.032 |
| IIPEPTKFSRQR | 0.7059 ± 0.0026 |
| IIQTTKPTRNIK | 0.67 ± 0.022 |
| IIRINSKMGSRK | 0.725 ± 0.0078 |
| IKIILLEKQGSK | 0.697 ± 0.033 |
| IKKANRKTKPMK | 0.712 ± 0.078 |
| IKKKVKNQKENQ | 0.726 ± 0.013 |
| IKKNRYYKRIII | 0.657 ± 0.028 |
| IKNEKKKEIELN | 0.639 ± 0.0065 |

| Sequence | protein stability index |
| --- | --- |
| IKNEKKNKRKKK | 0.71337 ± 0.00014 |
| IKPTRKKTISTR | 0.715 ± 0.095 |
| IKRRKRNRKRGP | 0.675 ± 0.041 |
| IKTCANGPPHSM | 0.64 ± 0.06 |
| ILCASDLNRPCL | 0.697 ± 0.04 |
| ILFVTASSFSPP | 0.67 ± 0.045 |
| ILPCLSVRFFAP | 0.658 ± 0.0068 |
| ILPYTDTVCYRY | 0.699 ± 0.047 |
| ILRLVGRGLVLL | 0.639 ± 0.013 |
| ILSDCWDQTIIE | 0.671 ± 0.018 |
| ILSFPYSQYFMS | 0.7242 ± 0.0052 |
| ILSRTEGHCLII | 0.739 ± 0.074 |
| ILVGPTDFLPLE | 0.651 ± 0.016 |
| ILVSRQGRGMRS | 0.643 ± 0.013 |
| ILVSVLRFVRNR | 0.691 ± 0.029 |
| IMGGGGEGGINC | 0.698 ± 0.019 |
| IMRLCSSNRICG | 0.678 ± 0.027 |
| INGSTENKSVKT | 0.644 ± 0.012 |
| INKNKKKEKLTK | 0.697 ± 0.015 |
| INVKRSNAQRKG | 0.754 ± 0.058 |
| INVNNENLRGTE | 0.663 ± 0.072 |
| IPDPSPFTCPNV | 0.557 ± 0.02 |
| IPGVPPPRFSIR | 0.704 ± 0.034 |
| IPLCRVAGPKLK | 0.591 ± 0.048 |
| IPLPMLLHLPRA | 0.684 ± 0.019 |

| Sequence | protein stability index |
| --- | --- |
| IPRHLGTRVVPI | 0.682 ± 0.072 |
| IPSLSLPLQTGS | 0.64 ± 0.055 |
| IQAERKKSYKDT | 0.616 ± 0.075 |
| IQSRGQEKKKRK | 0.673 ± 0.0075 |
| IRGWVRCRVARG | 0.683 ± 0.021 |
| IRILDARYLSIS | 0.62 ± 0.12 |
| IRKKIRKKTIYK | 0.798 ± 0.034 |
| IRKKNKEKIKNQ | 0.691 ± 0.25 |
| IRKPRRHRTVET | 0.73 ± 0.057 |
| IRNSDNNKNHPR | 0.693 ± 0.042 |
| IRPSQASSLRKT | 0.634 ± 0.066 |
| IRQPIPTKVHRL | 0.744 ± 0.045 |
| IRVAWTPRSYDL | 0.664 ± 0.038 |
| ISALYVPGILSK | 0.6 ± 0.018 |
| ISCSDNMLLLFD | 0.697 ± 0.01 |
| ISCTASRCRLTR | 0.744 ± 0.025 |
| ISFGSVFSGFFH | 0.7354 ± 0.0014 |
| ISFTDPSMGTLG | 0.608 ± 0.11 |
| ISGEISTLLKTR | 0.71 ± 0.081 |
| ISLGGNWHRVVT | 0.649 ± 0.019 |
| ISSGRRFRAGAE | 0.703 ± 0.046 |
| ISSIRKNSKREE | 0.755 ± 0.031 |
| ISVRAVDFGIAG | 0.68 ± 0.033 |
| ITAATFCRRPAS | 0.659 ± 0.12 |
| ITGSRVQVYIGR | 0.693 ± 0.021 |

| Sequence | protein stability index |
| --- | --- |
| ITKELKNIKQED | 0.675 ± 0.0088 |
| ITLSCFPRPFPL | 0.691 ± 0.02 |
| ITRAKGKPEISL | 0.639 ± 0.12 |
| IVAWQGRNLTPL | 0.655 ± 0.12 |
| IVGAVMMGGRTM | 0.68 ± 0.013 |
| IVGEDRRRTAFR | 0.678 ± 0.026 |
| IVMGVGCYTGRP | 0.74 ± 0.036 |
| IWAKLGFRLQYS | 0.701 ± 0.13 |
| IWGGGKGRAGRH | 0.651 ± 0.041 |
| IYCGDRGITGGV | 0.683 ± 0.019 |
| IYCWGVSFGWLR | 0.68 ± 0.021 |
| IYHCRKSYKTRQ | 0.7205 ± 0.0042 |
| IYNGMLREEKSL | 0.728 ± 0.017 |
| KAGVWLWGGGGG | 0.678 ± 0.069 |
| KALGLRDHAILD | 0.6583 ± 0.004 |
| KALKNEYRYRAF | 0.645 ± 0.073 |
| KAPPDERGTGAQ | 0.6273 ± 0.0018 |
| KARLRQRKSTSK | 0.728 ± 0.0084 |
| KAVSRQSEATPV | 0.76 ± 0.093 |
| KAYGSCRSLAWF | 0.712 ± 0.061 |
| KCKRGYSAVREL | 0.936 ± 0.09 |
| KCSKGSQGECHV | 0.671 ± 0.05 |
| KDGSKMQCNIKK | 0.6763 ± 0.0014 |
| KEDLGGMVSGGR | 0.644 ± 0.009 |
| KEEIRNKIKTIK | 0.6809 ± 0.0063 |

| Sequence | protein stability index |
| --- | --- |
| KEKKGNKTKKQN | 0.657 ± 0.017 |
| KEKRLKATTQYE | 0.699 ± 0.015 |
| KELENLHDNEGN | 0.616 ± 0.019 |
| KELRYKKDRKKK | 0.689 ± 0.026 |
| KENYGIKTKDRK | 0.696 ± 0.075 |
| KEQKIMSKKIEK | 0.68978 ± 0.00026 |
| KEREGGSMNGGG | 0.692 ± 0.064 |
| KEWLSRDIEDAS | 0.665 ± 0.027 |
| KFRFPVDLIFET | 0.73 ± 0.015 |
| KGDMSCWPSRPI | 0.7137 ± 0.00075 |
| KGGWGMRGVRGG | 0.672 ± 0.0046 |
| KGKFTRGGMAGT | 0.668 ± 0.049 |
| KGKKRKNEKNKR | 0.691 ± 0.0089 |
| KGLLSITLRNLD | 0.63 ± 0.049 |
| KGMVEESIIKRA | 0.62084 ± 0.00038 |
| KGRKKKKRKEQE | 0.693 ± 0.016 |
| KGRRVSTGRRRR | 0.712 ± 0.004 |
| KGRWEVRGEGRG | 0.64 ± 0.03 |
| KGSWCSPRGELR | 0.6552 ± 0.0059 |
| KHKGRSKETHDV | 0.616 ± 0.09 |
| KHLIHSRLGICG | 0.6634 ± 0.0059 |
